This note sets out measurements from patent US6583108B1, “Human bikunin” (Bayer Corporation, dated 2003).

Read-outs that look alike come from different tables or passages of the source.

In one test the target is Factor XIIa. Description: enzyme inhibition kinetics; first preparation of bikunin (7-64).
Test [1] concerns the target bovine trypsin (bovine) (UniProt P00760).
For test [2], the target named is Factor XIa. The test is described as follows: enzyme inhibition kinetics.
Test [3] deals with Factor XIa. The test is described as follows: enzyme inhibition kinetics, E(OBz)AR-AMC substrate.
Test [4] deals with bovine trypsin (bovine) (UniProt P00760). This is another data set of the same source.
Chain of bovine trypsin (bovine) (P00760 24-246): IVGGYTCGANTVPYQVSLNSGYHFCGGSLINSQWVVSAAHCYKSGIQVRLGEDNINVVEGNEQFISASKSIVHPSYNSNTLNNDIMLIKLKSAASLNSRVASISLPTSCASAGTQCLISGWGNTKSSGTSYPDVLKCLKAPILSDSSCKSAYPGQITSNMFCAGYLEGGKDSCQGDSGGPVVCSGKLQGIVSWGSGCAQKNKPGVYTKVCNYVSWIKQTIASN
For test [5] the target is unchanged. This is another data set of the same source.
Test [6] has as its target bovine pancreatic kallikrein (bovine). The test is described as follows: enzyme inhibition kinetics; first preparation of bikunin (7-64).
Test [7] addresses human neutrophil elastase (human, UniProt P08246). The test is described as above.
Test [8] has as its target bovine trypsin (bovine) (UniProt P00760). The source holds these as a separate data set.
Test [9] shares this target. This is another data set of the same source.
For test [10], the target named is Factor XIa. The test is described as follows: enzyme inhibition kinetics; Sf9-derived bikunin (1-170).
The target in a further test is Tissue Factor VIIa. Described as above.
The target of test [11] is bovine pancreatic kallikrein (bovine). The description is as above.

The Ki is the dissociation constant of the complex between target and ligand, obtained from inhibition or displacement. Molecule synthetic placental bikunin (7-64) displayed a Ki in the test with Factor XIIa above 300 nM.
Turning to synthetic placental bikunin (102-159), the trypsin inhibitory activity, specific activity (U/mg) of the purified refolded peptide with bovine trypsin (bovine) [1] was determined as 300000 U/mg. For the same molecule, the inhibitory constant (Ki) with Factor XIa [2] and with Factor XIa [3] was 15 nM throughout.
As for “recombinant placental bikunin (102-159) expressed in yeast SC101 (construct #1)”, the inhibition of trypsin by yeast culture supernatant (applysate) in the test with bovine trypsin (bovine) [4] was 82%.

B1: synthetic placental bikunin (7-64) (other)
chain: IHDFCLVSKVVGRCRASMPRWWYNVTDGSCQLFVYGGCDGNSNNYLTKEECLKKCATV
Turning to B1, in the test with bovine trypsin (bovine) [5], the trypsin inhibitory activity, specific activity (U/mg) of the purified refolded peptide turned out to be 294000 U/mg. Besides, the Ki in test [6] is 0.4 nM; in test [7], above 100 nM.

B2: placental bikunin 98-159 expressed in yeast (construct #4) (protein)
chain: DMFNYEEYCTANAVTGPCRASFPRWYFDVERNSCNNFIYGGCRGNKNSYRSEEACMLRCFRQ
With B2, the inhibition of trypsin by yeast culture supernatant (applysate) with bovine trypsin (bovine) [4] turned out to be 93%.

B3: placental bikunin 101-159 expressed in yeast (construct #3) (protein)
chain: NYEEYCTANAVTGPCRASFPRWYFDVERNSCNNFIYGGCRGNKNSYRSEEACMLRCFRQ
As for B3, in the test with bovine trypsin (bovine) [4], the inhibition of trypsin by yeast culture supernatant (applysate) is 25%.

B4: native human placental bikunin isolated from human placenta (protein)
chain: ADRERSIHDFCLVSKVVGRCRASMPRWWYNVTDGSCQLFVYGGCDGNSNNYLTKEECLKKCATVTENATGDLATSRNAADSSVPSAPRRQDSEDHSSDMFNYEEYCTANAVTGPCRASFPRWYFDVERNSCNNFIYGGCRGNKNSYRSEEACMLRCFRQQENPPLPLGSK
modifications: probably glycosylated at the asparagine residue at position 30
Consider B4, for which, in the test with bovine trypsin (bovine) [8], the trypsin inhibitory activity (Units/OD 280) after Superdex 75 was determined as 24500 Units/OD 280.

B5: recombinant placental bikunin (1-170) from baculovirus/Sf9 expression (protein)
chain: B4 chain
modifications: probably glycosylated at the asparagine residue at position 30
As to B5, the trypsin inhibitory activity, specific activity (U/OD) after C18 reverse-phase with bovine trypsin (bovine) [9] is 72200 U/OD. The Ki with Factor XIa [10] is 3 nM; with Tissue Factor VIIa, 800 nM; in test [11], 0.12 nM.
